Patent US20050004351A1

Tests used:
Assay in all cases: competitive ELISA
[1] = biological target: affinity purified β2GPI-dependent antiphospholipid antibody from patient 6701
[2] = biological target: affinity purified β2GPI-dependent antiphospholipid antibody from patient 6203
[3] = biological target: affinity purified β2GPI-dependent antiphospholipid antibody from patient 6626
[4] = biological target: affinity purified β2GPI-dependent antiphospholipid antibody from patient 6652
[5] = biological target: affinity purified β2GPI-dependent antiphospholipid antibody from patient 7015
[6] = biological target: affinity purified β2GPI-dependent antiphospholipid antibody from patient 6509
[7] = biological target: affinity purified β2GPI-dependent antiphospholipid antibody from patient 6641
[8] = biological target: affinity purified β2GPI-dependent antiphospholipid antibody from patient 6644
[9] = biological target: affinity purified β2GPI-dependent antiphospholipid antibody from patient 7101
[10] = biological target: affinity purified β2GPI-dependent antiphospholipid antibody from patient 7008
[11] = biological target: affinity purified β2GPI-dependent antiphospholipid antibody from patient 7104
[12] = biological target: affinity purified β2GPI-dependent antiphospholipid antibody from patient 6501
[13] = biological target: affinity purified β2GPI-dependent antiphospholipid antibody from patient 6632

Max inhibition [1]: 10%
Max inhibition [2]: 5%
Max inhibition [3]: 10%
Max inhibition [4]: 15%
Max inhibition [5]: 10%
Max inhibition [6]: 10%
Max inhibition [7]: 10%
Max inhibition [8]: 10%
Max inhibition [9]: 5%
Max inhibition [10]: 20%
Max inhibition [11]: 0%
Max inhibition [12]: 10%
Max inhibition [13]: 10%
B1: recombinant human β2GPI domain 5, GlyHis6 (protein)
chain: GRASCKLPVKKATVVYQGERVKIQEKFKNGMLHGDKVSFFCKNKEKKCSYTEDAQCIDGTIEVPKCFKEHSSLAFWKTDASDVKPCGHHHHHH
